{"source": "patent US20240069033A1", "about": "“METHOD FOR SCREENING FOR CANDIDATE MOLECULE CAPABLE OF FORMING COMPLEX IN CONJUNCTION WITH PLURALITY OF TARGET MOLECULES” (Chugai Seiyaku Kabushiki Kaisha, priority 2020, published 2024)", "key": {"[1]": {"target": "biotinylated GFP1-9", "test": "mRNA display pull-down with biotinylated GFP1-9, qPCR; corrected with the display efficiency"}, "[2]": {"target": "biotinylated GFP1-9", "test": "mRNA display pull-down: 0.42 µM Display molecule with 1 µM biotinylated GFP1-9, streptavidin beads, TEV elution, qPCR"}, "[3]": {"target": "biotinylated GFP1-9", "test": "cell-based or functional assay"}, "[4]": {"target": "GFP10-Link12-FRB-His×6", "sequence (chain, as listed by the source limits assumed)": "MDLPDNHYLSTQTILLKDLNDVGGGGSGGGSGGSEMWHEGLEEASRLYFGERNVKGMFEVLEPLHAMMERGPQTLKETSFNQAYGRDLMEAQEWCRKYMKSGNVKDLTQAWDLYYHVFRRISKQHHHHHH", "test": "cell-based or functional assay"}, "[5]": {"target": "anti-ubiquitin antibody (Mouse IgG1 monoclonal antibody; clone name FK2)", "test": "mRNA display pull-down on anti-ubiquitin antibody (FK2) magnetic beads, qPCR; 1:1 mixture of the two display molecules"}, "[6]": {"target": "anti-ubiquitin antibody (Mouse IgG1 monoclonal antibody; clone name FK2)", "test": "mRNA display pull-down on anti-ubiquitin antibody (FK2) magnetic beads, qPCR; 1:1 mixture; corrected with the display efficiency"}, "[7]": {"target": "anti-ubiquitin antibody (Mouse IgG1 monoclonal antibody; clone name FK2)", "test": "mRNA display pull-down on anti-ubiquitin antibody (FK2) magnetic beads, heat elution, qPCR"}, "[8]": {"target": "anti-ubiquitin antibody (Mouse IgG1 monoclonal antibody; clone name FK2)", "test": "mRNA display pull-down on anti-ubiquitin antibody (FK2) magnetic beads, qPCR; corrected with the display efficiency"}, "[9]": {"target": "anti-ubiquitin antibody (Mouse IgG1 monoclonal antibody; clone name FK2)", "test": "mRNA display pull-down on anti-ubiquitin antibody (FK2) magnetic beads, qPCR"}}, "data": [{"substance": "GFP10-11 fusion peptide (peptide; modification not given; biotinylated at the Avi tag (co-expression with BirA))", "values": [{"measurement": "Recovery rate (%)", "setting": "[1]", "result": 23.4, "unit": "%"}, {"measurement": "Apparent recovery rate (%)", "setting": "[2]", "result": 13.1, "unit": "%"}, {"measurement": "Recovered nucleic acid amount (molecules)", "setting": "[2]", "result": "1.31e+11", "unit": "molecules"}]}, {"substance": "GFP10-Link12-FRB-His×6", "values": [{"measurement": "Recovered nucleic acid amount (molecules) of compound nk06 by pull-down with biotinylated GFP1-9; Condition 4, FKBP12-GFP11 absent", "setting": "[3]", "result": "2.24e+08", "unit": "molecules"}, {"measurement": "Recovery rate (%) of compound nk06 by pull-down with biotinylated GFP1-9; Condition 4, FKBP12-GFP11 absent", "setting": "[3]", "result": 0.055, "unit": "%"}]}, {"substance": "His×6-FKBP12-Link12-GFP11", "values": [{"measurement": "Recovered nucleic acid amount (molecules) of compound nk06 by pull-down with biotinylated GFP1-9; Condition 3, GFP10-FRB absent", "setting": "[3]", "result": "8.21e+08", "unit": "molecules"}, {"measurement": "Recovery rate (%) of compound nk06 by pull-down with biotinylated GFP1-9; Condition 3, GFP10-FRB absent", "setting": "[3]", "result": 0.202, "unit": "%"}, {"measurement": "Recovered nucleic acid amount (molecules) of compound nk06 (rapamycin-nucleic acid) by pull-down with biotinylated GFP1-9; Condition 1, all three proteins at 1 µM", "setting": "[4]", "result": "3.5e+10", "unit": "molecules"}, {"measurement": "Recovery rate (%) of compound nk06 (rapamycin-nucleic acid) by pull-down with biotinylated GFP1-9; Condition 1, all three proteins at 1 µM", "setting": "[4]", "result": 8.62, "unit": "%"}]}, {"substance": "splitUb (N) + splitUb (C)", "values": [{"measurement": "Apparent recovery rate (%)", "setting": "[5]", "result": 0.194, "unit": "%"}, {"measurement": "Recovered nucleic acid amount (molecules)", "setting": "[5]", "result": "7.16e+09", "unit": "molecules"}, {"measurement": "Recovery rate (%)", "setting": "[6]", "result": 0.344, "unit": "%"}]}, {"substance": "splitUb(C) (peptide)", "values": [{"measurement": "Apparent recovery rate (%)", "setting": "[7]", "result": 0.571, "unit": "%"}, {"measurement": "Recovered nucleic acid amount (molecules)", "setting": "[7]", "result": "1.16e+10", "unit": "molecules"}, {"measurement": "Recovery rate (%)", "setting": "[8]", "result": 1.01, "unit": "%"}]}, {"substance": "splitUb(N-C)", "values": [{"measurement": "Apparent recovery rate (%)", "setting": "[7]", "result": 12.3, "unit": "%"}, {"measurement": "Recovered nucleic acid amount (molecules)", "setting": "[7]", "result": "6.69e+10", "unit": "molecules"}, {"measurement": "Recovery rate (%)", "setting": "[8]", "result": 16.1, "unit": "%"}, {"measurement": "fold higher recovery rate than the other controls", "setting": "[9]", "result": "> 16", "unit": "times"}]}]}
